In US20100248359A1 (Chugai, published 2010):

Tests used:
[1] = biological target: T1, soluble form of GPC3 core protein (human, UniProt P51654 25-563); assay: ELISA on plate coated with soluble GPC3 core protein; antibody from COS7 culture supernatant [upper left panel]
T1 construct: not shown: His tag added to the C-terminus

[2] = biological target: T1, soluble form of GPC3 core protein; assay: ELISA on plate coated with soluble GPC3 core protein; antibody from COS7 culture supernatant [middle right panel]
[3] = biological target: T2, full-length human GPC3 (human, UniProt P51654 25-554); assay: flow cytometry, antibody at 5 µg/mL, HepG2 cells
T2 construct: On CHO (DXB11) or SK-HEP-1 (SK-03) transfectants; also used here for the GPC3 on the hepatoma lines HepG2 and HuH-7; also called human glypican 3
T2 sequence (P51654 25-554 limits assumed): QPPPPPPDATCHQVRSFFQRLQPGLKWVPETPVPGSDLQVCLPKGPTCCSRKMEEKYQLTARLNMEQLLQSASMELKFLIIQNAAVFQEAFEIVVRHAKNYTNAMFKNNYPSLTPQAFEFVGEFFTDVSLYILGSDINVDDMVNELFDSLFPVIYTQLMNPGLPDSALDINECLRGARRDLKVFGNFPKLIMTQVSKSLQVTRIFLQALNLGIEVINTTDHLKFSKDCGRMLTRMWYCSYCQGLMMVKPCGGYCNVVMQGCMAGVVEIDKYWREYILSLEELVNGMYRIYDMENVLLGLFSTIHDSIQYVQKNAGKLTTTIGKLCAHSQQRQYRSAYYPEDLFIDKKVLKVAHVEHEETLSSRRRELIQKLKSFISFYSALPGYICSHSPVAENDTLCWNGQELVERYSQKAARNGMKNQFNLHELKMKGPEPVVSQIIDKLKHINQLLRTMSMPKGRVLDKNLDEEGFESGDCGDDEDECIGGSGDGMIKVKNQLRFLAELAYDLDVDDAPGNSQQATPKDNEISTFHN

[4] = biological target: T2, full-length human GPC3; assay: flow cytometry, antibody at 5 µg/mL, CHO cells expressing human GPC3 (column CHO/human GPC3)
[5] = biological target: T1, soluble form of GPC3 core protein; assay: ELISA on plate coated with soluble GPC3 core protein
[6] = biological target: T3, GC-3 (GST fusion of GPC3 Ala524 to Lys563) (human, UniProt P51654 524-563); assay: Western blotting of GST-fusion proteins
T3 construct: not shown: GST as encoded by pGEX-4T-3 (Amersham), N-terminal to the GPC3 peptide
T3 chain: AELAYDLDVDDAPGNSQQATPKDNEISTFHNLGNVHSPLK

[7] = biological target: T2, full-length human GPC3; assay: flow cytometry, antibody at 5 µg/mL, HuH-7 cells

EC50 (read off the curve) [1]	EC50 (read off the curve) [2]	FACS X-mode value of the histogram [3]	FACS X-mode value of the histogram [4]	EC50 [5]	binding result [6]	FACS X-mode value of the histogram [7]	Binder
~20 ng/mL	–	–	–	–	–	–	modified humanized GC33 (H chain ver.k, L chain G34A) (antibody, human IgG1, V domains shown, COS7 supernatant; human IgG1/kappa) VH: QVQLVQSGAEVKKPGASVKVSCKASGYTFTDYEMHWVRQAPGQGLEWMGALDPKTGDTAYSQKFKGRVTLTADKSTSTAYMELSSLTSEDTAVYYCTRFYSYTYWGQGTLVTVSS VL: DVVMTQSPLSLPVTPGEPASISCRSSQSLVHSNANTYLHWYLQKPGQSPQLLIYKVSNRFSGVPDRFSGSGSGTDFTLKISRVEAEDVGVYYCSQNTHVPPTFGQGTKLEIK
~20 ng/mL	–	–	–	–	–	–	modified humanized GC33 (H chain ver.k, L chain G34D) (antibody, human IgG1, V domains shown, COS7 supernatant; human IgG1/kappa) VH: QVQLVQSGAEVKKPGASVKVSCKASGYTFTDYEMHWVRQAPGQGLEWMGALDPKTGDTAYSQKFKGRVTLTADKSTSTAYMELSSLTSEDTAVYYCTRFYSYTYWGQGTLVTVSS VL: DVVMTQSPLSLPVTPGEPASISCRSSQSLVHSNDNTYLHWYLQKPGQSPQLLIYKVSNRFSGVPDRFSGSGSGTDFTLKISRVEAEDVGVYYCSQNTHVPPTFGQGTKLEIK
–	~20 ng/mL	–	–	–	–	–	modified humanized GC33 (H chain ver.k, L chain G34I) (antibody, human IgG1, V domains shown, COS7 supernatant; human IgG1/kappa) VH: QVQLVQSGAEVKKPGASVKVSCKASGYTFTDYEMHWVRQAPGQGLEWMGALDPKTGDTAYSQKFKGRVTLTADKSTSTAYMELSSLTSEDTAVYYCTRFYSYTYWGQGTLVTVSS VL: DVVMTQSPLSLPVTPGEPASISCRSSQSLVHSNINTYLHWYLQKPGQSPQLLIYKVSNRFSGVPDRFSGSGSGTDFTLKISRVEAEDVGVYYCSQNTHVPPTFGQGTKLEIK
–	~20 ng/mL	–	–	–	–	–	modified humanized GC33 (H chain ver.k, L chain G34K) (antibody, human IgG1, V domains shown, COS7 supernatant; human IgG1/kappa) VH: QVQLVQSGAEVKKPGASVKVSCKASGYTFTDYEMHWVRQAPGQGLEWMGALDPKTGDTAYSQKFKGRVTLTADKSTSTAYMELSSLTSEDTAVYYCTRFYSYTYWGQGTLVTVSS VL: DVVMTQSPLSLPVTPGEPASISCRSSQSLVHSNKNTYLHWYLQKPGQSPQLLIYKVSNRFSGVPDRFSGSGSGTDFTLKISRVEAEDVGVYYCSQNTHVPPTFGQGTKLEIK
–	–	52	82.7	0.24 nM	binds	8.4	GC33 (antibody, V domains shown, Mouse monoclonal from a mouse immunized with GC-3; also called GC33 antibody) VH: QVQLQQSGAELVRPGASVKLSCKASGYTFTDYEMHWVKQTPVHGLKWIGALDPKTGDTAYSQKFKGKATLTADKSSSTAYMELRSLTSEDSAVYYCTRFYSYTYWGQGTLVTVSA VL: DVVMTQTPLSLPVSLGDQASISCRSSQSLVHSNGNTYLHWYLQKPGQSPKLLIYKVSNRFSGVPDRFSGSGSGTDFTLKISRVEAEDLGVYFCSQNTHVPPTFGSGTKLEIK
–	–	12.2	15.5	0.1 nM	binds	2.4	GC199 (antibody, V domains shown, Mouse monoclonal from a mouse immunized with GC-3; also called GC199 antibody) VH: QIQLEQSGPELKKPGETVKISCKASGYIFRDYSMHWVKQAPGKGLKWMGWINTETGEPTYADDFKGRFAFSLETSASTAYLQINNLKNEDTATYFCTSLYWGQGTLVTVSA VL: not shown
–	–	6.5	7.1	5.61 nM	binds	3.8	GC179 (antibody, V domains shown, Mouse monoclonal from a mouse immunized with GC-3) VH: EVQLVETGGGLVQPEGSLKLSCAASGFSFNINAMNWVRQAPGKGLEWVARIRSESNNYATYYGDSVKDRFTISRDDSQNMLYLQMNNLKTEDTAIYYCVREVTTSFAYWGQGTLVTVSA VL: DIVMTQSAPSVPVTPGESVSISCKSSKSLLHSNGNTYLNWFLQRPGQSPQLLIYWMSNLASGVPDRFSGSGSGTAFTLRISRVEAEDVGVYYCMQHIEYPFTFGTGTKLEIK
